# Measurements published in patent publication WO2016170039A1 (dated 2016).
# T1: human angiopoietin 2 (human, UniProt O15123 19-496, limits assumed)
# T1 construct: Bought (R&D Systems Cat.No. 623-AN) or produced in house; also called ANG-2; human ANG-2
# T1 sequence: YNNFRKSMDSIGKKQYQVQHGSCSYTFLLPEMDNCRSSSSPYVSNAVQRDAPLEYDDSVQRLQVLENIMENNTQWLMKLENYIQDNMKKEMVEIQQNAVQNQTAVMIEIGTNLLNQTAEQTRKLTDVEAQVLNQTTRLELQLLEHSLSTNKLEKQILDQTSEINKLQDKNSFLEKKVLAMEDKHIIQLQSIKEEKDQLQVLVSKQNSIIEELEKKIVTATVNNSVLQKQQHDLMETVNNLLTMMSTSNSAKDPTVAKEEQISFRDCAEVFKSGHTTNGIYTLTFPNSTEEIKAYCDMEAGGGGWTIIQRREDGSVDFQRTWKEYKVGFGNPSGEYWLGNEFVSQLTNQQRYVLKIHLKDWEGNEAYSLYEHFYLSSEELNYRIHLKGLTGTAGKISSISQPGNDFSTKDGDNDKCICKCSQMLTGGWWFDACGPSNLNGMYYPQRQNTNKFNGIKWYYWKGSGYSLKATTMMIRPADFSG
# B1: <ANG-2> LC06 (antibody, IgG1, V domains shown)
# VH: not shown
# VL: QPGLTQPPSVSVAPGQTARITCGGNNIGSKSVHWYQQKPGQAPVLVVYDDSDRPSGIPERFSGSNSGNTATLTISRVEAGDEADYYCQVWDSSSDHYVFGTGTKVTVLG
# Target: T1, human angiopoietin 2
# Assay: ANG-2/Tie2 receptor interaction ELISA; antibody pre-incubated with ANG-2; the IC50 (Table 2) is not given
binder,measurement,value
B1,binding result,binds
